According to US20030064410A1 (ECOLE POLYTECHNIQUE FEDERALE DE LAUSANNE EPFL, published 2003):
Square brackets hold non-standard residues; d marks the D form. Ends that are not written are not given here. sY = N[C@@H](Cc1ccc(OS(=O)(=O)O)cc1)C(=O)O

Columns and labels:
[1] = biological target: T1, VEGF165 (vascular endothelial cell growth factor, 165 isoform), recombinant from E. coli, refolded dimer (human, UniProt P15692-4 27-191, Example 1: about 4 AMCA coumarins per VEGF165, sites not given; Example 3 screen: biotinylated, sites not given); assay: on-bead colorimetric screen, about 0.25 nM biotinylated VEGF165 with 1 equivalent of heparin
T1 construct: Tags from the pRSET vector are not mentioned; also called coumerin-VEGF; coumarin-labeled VEGF165
Experimental: The resin was rinsed with TBS (5×) and 200 μL of 5-bromo-4-chloro-3-indoylphosphate p-toluidine salt/nitro blue tetrazolium chloride (BCIP/NBT) reagent was added to develop a blue/black color where the streptavidin alkaline phosphatase was present. Nonspecific adsorption of the streptavidin alkaline phosphatase was detected as blue/black stained beads. After 15 minutes, the resin was rinsed with TBS (5×) prior to adding 100 μL of about 0.25 nM of biotinylated VEGF₁₆₅ in the presence or absence of 1 or 10 equivalents of heparin sodium salt (isolated from porcine intestinal mucosa) in 400 μL of blocking buffer. The mixture was shaken overnight, the solution removed, the resin washed with TBS (6×), and 1 mL streptavidin alkaline phosphatase (diluted 1:1000 from a 1 mg/mL solution) was added. The streptavidin alkaline phosphatase preferentially attached to beads having VEGF since the VEGF was attached to biotin, which is a ligand for the streptavidin on the streptavidin alkaline phosphatase. After 2 h the solution was removed and rinsed with TBS (5×) and Fast Red substrate (PIERCE) was added to make the presence of the alkaline phosphatase visible by making a red color. Positive beads were those that were stained red. The red beads were selected, and subjected to 8M guanidine-HCl, pH=1.4 for 20 minutes prior to rinsing with H20 (3×) and DMF until residual color was removed. […]

[2] = biological target: T1, VEGF165 (vascular endothelial cell …); assay: SPR

T1 sequence (P15692 other isoform, or with tags, fused parts or gaps limits assumed): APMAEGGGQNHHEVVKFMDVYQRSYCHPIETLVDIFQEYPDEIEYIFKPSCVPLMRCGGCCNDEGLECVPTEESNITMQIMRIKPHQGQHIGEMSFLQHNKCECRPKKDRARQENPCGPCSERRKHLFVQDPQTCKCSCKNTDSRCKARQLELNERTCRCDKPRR

Row | Binder | binding result [1] | Kd [2] [nM]
1 | [sY][sY]GG[sY]D[sY]GGGG-{PEGA resin} (not fully specified (N-terminus); printed as Y(SO3)Y(SO3)GGY(SO3)DY(SO3)) [Y(SO3)Y(SO3)GGY(SO3)DY(SO3)-Gly-Gly-Gly-Gly-PEGA bead] | binds | 
2 | F[sY]GG[sY]D[sY]GGGG-{PEGA resin} (not fully specified (N-terminus)) [FY(SO3)GGY(SO3)DY(SO3)-Gly-Gly-Gly-Gly-PEGA bead] | binds | 
3 | S[sY]D[sY]G (not fully specified (C-terminus); printed as SY(SO3)DY(SO3)G, Independently synthesized free peptide used in SPR) [SY(SO3)DY(SO3)G] |  | 3100
4 | [sY][sY]GG[sY]D[sY]G (not fully specified (N-terminus, C-terminus); printed as Y(SO3)Y(SO3)GGY(SO3)DY(SO3)G, Independently synthesized free peptide used in SPR) [Y(SO3)Y(SO3)GGY(SO3)DY(SO3)G] |  | 140
